Reference: PMC9482650, “Quantitative fragmentomics allow affinity mapping of interactomes” (Nature Communications, 2022)

Key:
Assay in all cases: holdup assay
Details in all cases: plain residues with an end cap or a label only (N-terminal biotin on a linker: (peg)3)
APBA3_2, O96018 = target: T1, APBA3_2, O96018
T1 sequence (O96018 480-570, limits assumed, looked up): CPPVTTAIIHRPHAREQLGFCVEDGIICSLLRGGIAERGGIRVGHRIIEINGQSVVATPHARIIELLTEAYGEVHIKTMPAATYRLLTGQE

CARD14, Q9BXL6 = target: CARD14, Q9BXL6
CARD14, Q9BXL6, sequence (Q9BXL6 558-663): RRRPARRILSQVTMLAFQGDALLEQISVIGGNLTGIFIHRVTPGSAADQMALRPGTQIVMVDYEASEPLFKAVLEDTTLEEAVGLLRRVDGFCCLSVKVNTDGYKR

DLG5_2, Q8TDM6 = target: DLG5_2, Q8TDM6
DLG5_2, Q8TDM6, sequence (Q8TDM6 714-800): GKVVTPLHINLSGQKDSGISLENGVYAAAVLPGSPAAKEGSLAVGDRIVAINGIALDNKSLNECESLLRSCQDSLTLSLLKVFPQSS

DVL1, O14640 = target: T2, DVL1, O14640
T2 sequence (O14640 246-333, limits assumed, looked up): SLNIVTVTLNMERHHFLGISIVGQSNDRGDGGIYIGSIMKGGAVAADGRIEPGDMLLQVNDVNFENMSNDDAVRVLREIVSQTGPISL

GIPC3, Q8TF64 = target: GIPC3, Q8TF64
GIPC3, Q8TF64, sequence (Q8TF64 107-202): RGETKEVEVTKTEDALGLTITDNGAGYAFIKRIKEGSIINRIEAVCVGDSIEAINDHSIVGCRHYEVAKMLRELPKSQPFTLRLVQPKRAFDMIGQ

IL16_2, Q14005 = target: IL16_2, Q14005
IL16_2, Q14005, sequence (Q14005 350-450): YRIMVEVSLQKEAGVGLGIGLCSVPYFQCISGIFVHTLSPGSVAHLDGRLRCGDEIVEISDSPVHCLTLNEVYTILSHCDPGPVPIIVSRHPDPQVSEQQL

INTU, Q9ULD6 = target: T3, INTU, Q9ULD6
T3 sequence (Q9ULD6 180-273, limits assumed, looked up): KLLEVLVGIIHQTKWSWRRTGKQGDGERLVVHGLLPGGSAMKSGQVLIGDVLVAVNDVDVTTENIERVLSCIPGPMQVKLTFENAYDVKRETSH

LNX1_4, Q8TBB1 = target: LNX1_4, Q8TBB1
LNX1_4, Q8TBB1, sequence (Q8TBB1 631-726): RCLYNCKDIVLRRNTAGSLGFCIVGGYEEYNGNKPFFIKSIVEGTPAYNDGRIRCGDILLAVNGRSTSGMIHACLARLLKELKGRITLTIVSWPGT

LNX2_4, Q8N448 = target: T4, LNX2_4, Q8N448
T4 sequence (Q8N448 595-690, limits assumed, looked up): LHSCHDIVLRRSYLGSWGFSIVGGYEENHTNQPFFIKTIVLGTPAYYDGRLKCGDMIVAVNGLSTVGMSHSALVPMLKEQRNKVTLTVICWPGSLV

MAGI1_3, Q96QZ7 = target: MAGI1_3, Q96QZ7
MAGI1_3, Q96QZ7, sequence (Q96QZ7 638-725): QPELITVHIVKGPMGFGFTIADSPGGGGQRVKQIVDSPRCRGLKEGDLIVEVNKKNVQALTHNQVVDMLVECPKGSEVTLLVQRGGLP

MAGI1_6, Q96QZ7 = target: MAGI1_6, Q96QZ7
MAGI1_6, Q96QZ7, sequence (Q96QZ7 1146-1238): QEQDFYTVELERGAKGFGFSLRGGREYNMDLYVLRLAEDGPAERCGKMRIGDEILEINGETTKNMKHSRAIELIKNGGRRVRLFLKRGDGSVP

MAST3, O60307 = target: MAST3, O60307
MAST3, O60307, sequence (O60307 945-1048): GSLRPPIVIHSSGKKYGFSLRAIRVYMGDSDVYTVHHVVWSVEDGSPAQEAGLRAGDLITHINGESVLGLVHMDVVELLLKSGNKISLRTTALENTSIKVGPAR

MPDZ_3, O75970 = target: T5, MPDZ_3, O75970
T5 sequence (O75970 372-473, limits assumed, looked up): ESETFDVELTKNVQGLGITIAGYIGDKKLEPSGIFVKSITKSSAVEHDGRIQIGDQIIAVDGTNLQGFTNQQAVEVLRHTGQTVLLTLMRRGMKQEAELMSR

MPP1, Q00013 = target: T6, MPP1, Q00013
T6 sequence (Q00013 66-162, limits assumed, looked up): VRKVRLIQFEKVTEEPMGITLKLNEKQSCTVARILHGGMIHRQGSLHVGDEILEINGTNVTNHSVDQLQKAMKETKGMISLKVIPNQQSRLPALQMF

NHERF1_1, O14745 = target: T7, NHERF1_1, O14745
T7 sequence (O14745 9-104, limits assumed, looked up): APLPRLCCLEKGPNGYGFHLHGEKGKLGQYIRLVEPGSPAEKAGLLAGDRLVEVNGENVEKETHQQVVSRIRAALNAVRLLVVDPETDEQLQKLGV

NHERF4_3, Q86UT5 = target: NHERF4_3, Q86UT5
NHERF4_3, Q86UT5, sequence (Q86UT5 325-412): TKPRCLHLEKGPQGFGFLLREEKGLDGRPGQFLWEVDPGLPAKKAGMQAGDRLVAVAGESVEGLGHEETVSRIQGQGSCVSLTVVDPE

PDZD2_5, O15018 = target: T8, PDZD2_5, O15018
T8 sequence (O15018 2617-2716, limits assumed, looked up): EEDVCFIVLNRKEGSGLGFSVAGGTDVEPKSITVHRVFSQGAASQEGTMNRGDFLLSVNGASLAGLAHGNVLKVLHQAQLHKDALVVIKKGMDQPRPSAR

PDZD2_6, O15018 = target: T9, PDZD2_6, O15018
T9 sequence (O15018 2745-2839, limits assumed, looked up): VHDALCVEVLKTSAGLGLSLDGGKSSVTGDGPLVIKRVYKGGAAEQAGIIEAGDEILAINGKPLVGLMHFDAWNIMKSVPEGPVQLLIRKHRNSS

PDZD7_2, Q9H5P4 = target: T10, PDZD7_2, Q9H5P4
T10 sequence (Q9H5P4 205-303, limits assumed, looked up): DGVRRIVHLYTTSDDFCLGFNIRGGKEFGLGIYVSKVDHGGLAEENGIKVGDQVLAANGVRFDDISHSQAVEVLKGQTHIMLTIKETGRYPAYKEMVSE

PREX1_1, Q8TCU6 = target: PREX1_1, Q8TCU6
PREX1_1, Q8TCU6, sequence (Q8TCU6 608-718): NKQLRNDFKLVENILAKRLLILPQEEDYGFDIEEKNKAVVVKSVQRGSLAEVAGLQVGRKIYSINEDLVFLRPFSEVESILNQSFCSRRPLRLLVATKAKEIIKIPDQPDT

PTPN4, P29074 = target: T11, PTPN4, P29074
T11 sequence (P29074 512-599, limits assumed, looked up): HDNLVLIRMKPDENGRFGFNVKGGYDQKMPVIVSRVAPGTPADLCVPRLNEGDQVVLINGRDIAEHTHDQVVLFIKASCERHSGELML

SDCBP_1, O00560 = target: SDCBP_1, O00560
SDCBP_1, O00560, sequence (O00560 111-198): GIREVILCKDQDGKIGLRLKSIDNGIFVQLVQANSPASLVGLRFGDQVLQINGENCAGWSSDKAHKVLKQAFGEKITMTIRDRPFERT

SIPA1L3, O60292 = target: T12, SIPA1L3, O60292
T12 sequence (O60292 961-1052, limits assumed, looked up): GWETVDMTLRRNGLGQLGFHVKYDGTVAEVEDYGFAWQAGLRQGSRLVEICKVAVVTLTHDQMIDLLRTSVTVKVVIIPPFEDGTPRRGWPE

SYNPO2L, Q9H987 = target: T13, SYNPO2L, Q9H987
T13 sequence (Q9H987 1-98, limits assumed, looked up): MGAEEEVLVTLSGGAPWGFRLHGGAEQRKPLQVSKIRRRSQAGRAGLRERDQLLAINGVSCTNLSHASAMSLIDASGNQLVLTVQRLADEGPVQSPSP

TJP1_1, Q07157 = target: TJP1_1, Q07157
TJP1_1, Q07157, sequence (Q07157 18-120): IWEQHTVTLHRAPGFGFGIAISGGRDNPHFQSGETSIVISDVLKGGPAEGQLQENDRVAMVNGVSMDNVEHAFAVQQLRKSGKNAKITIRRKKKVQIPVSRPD

With NLNSSEGVPDLLV [SARS-CoV-E, P59637] the pKd (APBA3_2, O96018) was “below the threshold”, the pKd (CARD14, Q9BXL6) was “below the threshold” and the pKd (DLG5_2, Q8TDM6) was “below the threshold”. The pKd (DVL1, O14640) was “below the threshold”, the pKd (GIPC3, Q8TF64) was “below the threshold” and the pKd (IL16_2, Q14005) was “below the threshold”. The pKd (INTU, Q9ULD6) was “below the threshold”, the pKd (LNX1_4, Q8TBB1) was “below the threshold” and the pKd (LNX2_4, Q8N448) was 3.74. For the same binder, the pKd (MAGI1_3, Q96QZ7) was “below the threshold”, the pKd (MAGI1_6, Q96QZ7) was “below the threshold” and the pKd (MAST3, O60307) was “below the threshold”. The pKd (MPDZ_3, O75970) was “below the threshold”, the pKd (MPP1, Q00013) was “below the threshold” and the pKd (NHERF1_1, O14745) was “below the threshold”. The pKd (NHERF4_3, Q86UT5) was “below the threshold”, the pKd (PDZD2_5, O15018) was “below the threshold” and the pKd (PDZD2_6, O15018) was 4.26. The pKd (PDZD7_2, Q9H5P4) was “below the threshold”, the pKd (PREX1_1, Q8TCU6) was “below the threshold” and the pKd (PTPN4, P29074) was “below the threshold”. The pKd (SDCBP_1, O00560) was “below the threshold”, the pKd (SIPA1L3, O60292) was “below the threshold” and the pKd (SYNPO2L, Q9H987) was “below the threshold”. For the same binder, the pKd (TJP1_1, Q07157) was “below the threshold”.
